Experimental data as given in US20050267020A1, “Polypeptides derived from inducible hsp70 and pharmaceutical compositions containing the same” (priority 2001, published 2005).

Experiments:
[1] = biological target: T1, HLA-B*0702 (Homo sapiens, UniProt P01889); assay: Measurement of peptide relative affinity to HLA-B*0702; type: binding; details: for Relative affinity: towards HLA-B*0702 molecule, lower = stronger binding
T1 construct: expressed in transfected cells; host or cells: T2-B7 cells (Tap-/-)
Description: Measurement of Peptide Relative Affinity to HLA class I. Tap−/− cells expressing the studied HLA-class I molecule (3×10^5 cells/mL) were incubated with various concentrations of peptides ranging from 100 μM to 0.1 μM in serum-free RPMI 1640 medium supplemented with 100 ng/ml of human β-2m at 37° C. for 16 hours. Cells were then washed twice and stained with the specific anti-class I mAb followed by FITC conjugated goat anti mouse Ig mAb to quantify the expression of HLA-A*0201. For each peptide concentration, the HLA-specific staining was calculated as the % of the staining obtained with 100 μM of the reference peptide. The relative affinity (RA) is determined as: RA=(Concentration of each peptide that induces 20% of HLA expression/Concentration of the reference peptide that induces 20% of HLA expression). The lower the RA-value, the stronger is the peptide binding to HLA. The mean RA value for each peptide is determined from at least three independent experiments.
For the study of Relative Affinity to HLA-A*0201, Tap−/− HLA-A*0201 T2 cells, the HLA-A*0201 specific mAb BB7.2 and the reference HLA-A*0201-binding peptide HIVpol 589 (IVGAETFYV) were used. For the study of Relative Affinity to HLA-A*0301, Tap−/− HLA-A*0301 T2-A3 cells are used. For the study of Relative Affinity to HLA-B*0701, Tap−/− HLA-B*0701 T2-B7 cells are used.
High affinity peptide discovery was also lead for the MHC molecule HLA-B*0702. 11 peptides presenting the primary anchor motif for HLA-B*0702 or predicted to show a high affinity by the computerized program BIMAS were tested for their Relative Affinity.

[2] = biological target: T2, HLA-A*0201 (human); assay: decay of peptide-stabilised HLA-A*0201 on T2 cells after Brefeldin A, flow cytometry
T2 construct: MHC class I molecule on TAP-deficient T2 cells; stabilised at the surface by the added peptide and detected with mAb BB7.2
Description: Assessment of Peptide/HLA class I Complex Stability. […] Cells were then washed four times to remove free peptide, incubated with Brefeldin A (10 μg/mL) for 1 hour to block cell surface expression of newly synthesized HLA molecules, washed and incubated at 37° C. for 0, 2, 4 or 6 hours. Subsequently, cells were stained with the HLA specific mAb followed by FITC conjugated goat anti mouse Ig mAb.

[3] = biological target: T2, HLA-A*0201; assay: HLA-A*0201 stabilisation on T2 cells, flow cytometry with BB7.2; ratio to reference peptide HIVpol 589
Description: For each peptide concentration, the HLA-specific staining was calculated as the % of the staining obtained with 100 μM of the reference peptide. […] The mean RA value for each peptide is determined from at least three independent experiments.

Molecule | Relative affinity [1] | Relative affinity [3] | further results
YPVTNAVITV [HSP 137(10)] | >10 | – | –
YPEEISSMV [HSP 115] | >10 | – | –
APLSLGLET [HSP 397] | >10 | – | –
YPVTNAVIT [HSP 137] | 1.2 | – | affinity for HLA-B*0702 (in words) ([1]; Relative Affinity determination): high affinity
YPEEISSMVL [HSP 115(10)] | >10 | – | –
STRIPKVQKL [HSP 340] | >10 | – | –
DVAPLSLGL [HSP 395] | >10 | – | –
IPTKQTQIF [HSP 420] | >10 | – | –
QVCNPIISGL [HSP 601] | >10 | – | –
IPTKQTQIFT [HSP 420(10)] | >10 | – | –
GPGPGGFGA [HSP 616] | >10 | – | –
LLLLDVAPL [HSP 391 (LLLLDVAPL)] | – | 0.5 | Stability (hrs) (DC50, half life of the HLA-A*0201/peptide complex) [2]: > 6 h
LMGDKSENV [HSP 380 (LMGDKSENV)] | – | 2.5 | Stability (hrs) (DC50, half life of the HLA-A*0201/peptide complex) [2]: 4 h
YLGYPVTNAV (also called HSPI34(10)) [HSP 134(10) (YLGYPVTNAV)] | – | 0.6 | –
LLDVAPLSL [HSP 393 (LLDVAPLSL)] | – | 0.4 | –
YLGYPVTNA [HSP 134 (YLGYPVTNA)] | – | 2.5 | –
SLFEGIDFYT [HSP 286 (SLFEGIDFYT)] | – | 0.25 | Stability (hrs) (DC50, half life of the HLA-A*0201/peptide complex) [2]: > 6 h
